What all share (test): SPR
On the technique in general: SPR reads the build-up and loss of mass on a sensor chip optically.

The target in assay [1] is HLA-B*4405^EENL (human | not stated | Epstein-Barr virus).
The target in assay [2] is HLA-B*4402^EENL (human | not stated | Epstein-Barr virus).
Assay [3] deals with HLA-B*4403^EENL (human | not stated | Epstein-Barr virus).
The target of the next assay is DM1 TCR (human).

The Kd is the free concentration of one partner at which half of the binding sites on the other are occupied at equilibrium, for simple one-to-one binding. High values mean lower affinity, low ones higher affinity. As a reminder, the koff is a measure of how fast the partners let go of each other. As for DM1 TCR, in assay [1], the Kd was found to be 300 nM, the Kd calc was 0.23 µM and the off-rate constant (koff) was found to be 0.02 s⁻¹. In addition, in assay [2], the Kd was 6.3 µM, the Kd calc was 14 µM and the koff was found to be 0.2 s⁻¹. Moreover, in assay [3], the dissociation constant Kd is 9.4 µM, the Kd calc is 16 µM and the off-rate (koff) was 0.25 s⁻¹.

With “HLA-B*4405^EENL (from UniProt P61769 21-119) (peptide-MHC)”, the Kd in the assay with DM1 TCR (human) is 1000 nM.

The values are drawn from PMC2626662.
